From patent US20250223280A1
Bridges are numbered along the chain shown (N, C = ends). [ ]: non-standard residue; d: D form. Pro(4S-NH2) = N[C@@H]1CN[C@H](C(=O)O)C1

B1: Compound 72 (peptide)
peptide: cyclo(PDCAWHLGELVWCT[dP])
modifications: disulfide 3-13; not fully specified (residue 1); also: conjugate from starting material A144
B2: Compound 51 (peptide)
peptide: cyclo(PDCAWHLGELVWCT[dP])
modifications: disulfide 3-13; not fully specified (residue 1); also: conjugate: hex-5-ynoyl peptide (Intermediate 48) clicked to one 6-(trifluoromethyl)pyrazin-2-ylamino sugar azide
B3: Compound 80 (peptide)
peptide: PDCAWHLGELVWCTP
modifications: not fully specified; residue 1 = (2S,4S)-4-aminoproline; residue 15 = D-Pro; backbone cyclised head to tail; disulfide Cys3-Cys13; 4-amino group of residue 1 acylated with the butanoyl-triazole linker to the ASGPR ligand
B4: Intermediate 14 (peptide)
peptide: cyclo([Pro(4S-NH2)]DCSWHLGELVWCT[dP])
modifications: disulfide 3-13
SMILES: CC(C)C[C@@H]1NC(=O)[C@H](Cc2c[nH]cn2)NC(=O)[C@H](Cc2c[nH]c3ccccc23)NC(=O)[C@H](CO)NC(=O)[C@@H]2CSSC[C@H](NC(=O)[C@H](Cc3c[nH]c4ccccc34)NC(=O)[C@H](C(C)C)NC(=O)[C@H](CC(C)C)NC(=O)[C@H](CCC(=O)O)NC(=O)CNC1=O)C(=O)N[C@@H]([C@@H](C)O)C(=O)N1CCC[C@@H]1C(=O)N1C[C@@H](N)C[C@H]1C(=O)N[C@@H](CC(=O)O)C(=O)N2
B5: Compound 86 (peptide)
peptide: PDCAWHLGELVWCTP
modifications: residue 1 = (2S,4S)-4-aminoproline; residue 15 = D-Pro; backbone cyclised head to tail; disulfide Cys3-Cys13; 4-amino group of residue 1 acylated with the linker to the sugar ligands
B6: Compound 91 (peptide)
peptide: PDCAWHLGELVWCTP
modifications: not fully specified; residue 1 = (2S,4R)-4-aminoproline; residue 15 = D-Pro; backbone cyclised head to tail; disulfide Cys3-Cys13; 4-amino group of residue 1 acylated with the linker to the ASGPR ligand
B7: Compound 67 (peptide)
peptide: cyclo(PDCAWHLGELVWCT[dP])
modifications: disulfide 3-13; not fully specified (residue 1); also: conjugate from starting material A139
B8: Compound 68 (peptide)
peptide: cyclo(PDCAWHLGELVWCT[dP])
modifications: disulfide 3-13; not fully specified (residue 1); also: 4-amino of residue 1 acylated with 4-(4-((4-(sugar-methyl)piperazin-1-yl)methyl)piperidin-1-yl)benzoic acid linker to ASGPR ligand (A140), one 6-(trifluoromethyl)pyrazin-2-ylamino sugar
B9: Compound 65 (peptide)
peptide: cyclo(PDCAWHLGELVWCT[dP])
modifications: disulfide 3-13; not fully specified (residue 1); also: conjugate from starting material A137, ligand number not given here
B10: Compound 94 (peptide)
peptide: cyclo(PDCAWHLGELVWCT[dP])
modifications: disulfide 3-13; not fully specified (residue 1); also: 4-amino group of residue 1 acylated with linker to ASGPR ligands
B11: Compound 61 (peptide)
peptide: cyclo(PDCAWHLGELVWCT[dP])
modifications: disulfide 3-13; not fully specified (residue 1); also: conjugate: Intermediate 11 acylated with phenoxyacetic acid TFP ester carrying one 6-(trifluoromethyl)pyrazin-2-ylamino sugar
B12: Intermediate 8 (peptide)
peptide: PDCAWHLGELVWCTP
modifications: residue 1 = (2S,4S)-4-aminoproline; residue 15 = D-Pro; backbone cyclised head to tail; disulfide Cys3-Cys13; 4-amino group of residue 1 acylated (linker only in a drawing; the mass fits hex-5-ynoyl)
B13: Compound 85 (peptide)
peptide: PDCAWHLGELVWCTP
modifications: residue 1 = (2S,4S)-4-aminoproline; residue 15 = D-Pro; backbone cyclised head to tail; disulfide Cys3-Cys13; 4-amino group of residue 1 acylated with the linker to the sugar ligands
B14: Compound 92 (peptide)
peptide: cyclo(PDCAWHLGELVWCT[dP])
modifications: disulfide 3-13; not fully specified (residue 1); also: linker and ASGPR ligand(s) not given here
B15: Compound 95 (peptide)
peptide: cyclo(PDCAWHLGELVWCT[dP])
modifications: disulfide 3-13; not fully specified (residue 1); also: 4-amino group of residue 1 acylated with linker to ASGPR ligands
B16: Compound 84 (peptide)
peptide: PDCAWHLGELVWCTP
modifications: residue 1 = (2S,4S)-4-aminoproline; residue 15 = D-Pro; backbone cyclised head to tail; disulfide Cys3-Cys13; 4-amino group of residue 1 acylated with the linker to the sugar ligands
B17: Compound 69 (peptide)
peptide: cyclo(PDCAWHLGELVWCT[dP])
modifications: disulfide 3-13; not fully specified (residue 1); also: conjugate from starting material A141
B18: Compound 66 (peptide)
peptide: cyclo(PDCAWHLGELVWCT[dP])
modifications: disulfide 3-13; not fully specified (residue 1); also: conjugate from starting material A138
B19: Compound 63 (peptide)
peptide: cyclo(PDCAWHLGELVWCT[dP])
modifications: disulfide 3-13; not fully specified (residue 1); also: conjugate from starting material A40
B20: Compound 64 (peptide)
peptide: cyclo(PDCAWHLGELVWCT[dP])
modifications: disulfide 3-13; not fully specified (residue 1); also: conjugate from starting material A125
B21: Intermediate 7 (peptide)
peptide: PDCAWHLGELVWCTP
modifications: residue 1 = (2S,4S)-4-aminoproline; residue 15 = D-Pro; backbone cyclised head to tail; disulfide Cys3-Cys13; 4-amino group of residue 1 acylated with 3-(2-(hex-5-ynamido)ethoxy)propanoyl
B22: Intermediate 5 (peptide)
peptide: PDCAWHLGELVWCTP
modifications: residue 1 = (2S,4S)-4-aminoproline (free 4-amino group); residue 15 = D-Pro; backbone cyclised head to tail; disulfide Cys3-Cys13
B23: Compound 52 (peptide)
peptide: cyclo(PDCAWHLGELVWCT[dP])
modifications: disulfide 3-13; not fully specified (residue 1); also: conjugate: hex-5-ynoyl peptide clicked to azide A2
B24: Intermediate 6 (peptide)
peptide: PDCAWHLGELVWCTP
modifications: residue 1 = (2S,4S)-4-aminoproline; residue 15 = D-Pro; backbone cyclised head to tail; disulfide Cys3-Cys13; 4-amino group of residue 1 acylated with PEG2-propanoyl capped by hex-5-ynamide

What follows are binders tested against IgG (assay: SPR, IgG immobilised on CM5 chip, compound as analyte; value from the legend of the grade (**** = Kd <100 nM)).

Kd | Binder
< 100 nM | B1
< 100 nM | B2
< 100 nM | B3
< 100 nM | B4
< 100 nM | B5
< 100 nM | cyclo(PDCAWHLGELVWCT[dP]) (disulfide 3-13; not fully specified (residue 1); also: conjugate from acid A32) [Compound 62]
< 100 nM | B6
< 100 nM | B7
< 100 nM | B8
< 100 nM | B9
< 100 nM | B10
< 100 nM | B11
< 100 nM | B12
< 100 nM | B13
< 100 nM | cyclo(PD[(S)‑2‑aminohex‑5‑enoic acid]AWHLGELVW[(S)‑2‑aminopent‑4‑enoic acid]T[dP]) (staple 3-13) [Intermediate 31]
< 100 nM | B14
< 100 nM | B15
< 100 nM | B16
< 100 nM | B17
< 100 nM | B18
< 100 nM | cyclo(PDCAWHLGELVWCT[dP]) (disulfide 3-13; not fully specified (residue 1)) [Intermediate 30]
< 100 nM | B19
< 100 nM | B20

Each binder was assayed against IgG (assay: SPR, IgG immobilised on CM5 chip, compound as analyte; value from the legend of the grade (++++ = Kd <100 nM)).

Kd | Binder
< 100 nM | B21
< 100 nM | B22
< 100 nM | B23
< 100 nM | B24
